This is an account of results in article doi:10.1101/304022 (bioRxiv, 2018).

The data set deals with the molecule itself. Kind of data set: dynamic light scattering.

Residue numbers refer to the chain shown, from its start.

B1: STIM1 23-213 (luminal domain of human stromal interaction molecule-1), wild type, unmodified (1 mM DTT) (domain or fragment, UniProt Q13586-1 23-213, looked up)
chain: LSHSHSEKATGTSSGANSEESTAAEFCRIDKPLCHSEDEKLSFEAVRNIHKLMDDDANGDVDVEESDEFLREDLNYHDPTVKHSTFHGEDKLISVEDLWKAWKSSEVYNWTVDEVVQWLITYVELPQYEETFRKLQLSGHAMPRLAVTNTTMTGTVLKMTDRSHRQKLQLKALDTVLFGPPLLTRHNHLKD
For the protein B1, the binding result is reported as “binds”.

B2: Cys49Ser/Cys56Ser double mutant STIM1 23-213 (domain or fragment, human, UniProt Q13586-1 23-213, looked up)
chain: B1 chain with C27S, C34S
For the protein B2, the binding result is “binds”.
